According to PMC12078792:

Columns and labels:
[1] = molecular target: HIV-1 CA hexamer tubes, disulfide-stabilized CA hexamers (A14C/E45C) assembled into large molecular weight tubes (HIV-1)
[2] = molecular target: HIV-1 CA hexamer tubes, disulfide-stabilized CA hexamers (A14C/E45C) assembled into large molecular weight tubes; assay: co-sedimentation with CA hexamer tubes; conditions: parent: est. 81; read off a plot
[3] = molecular target: HIV-1 CA hexamer tubes, disulfide-stabilized CA hexamers (A14C/E45C) assembled into large molecular weight tubes; assay: co-sedimentation with CA hexamer tubes; conditions: read off a plot

## TRIM-NUP153C-HA with the mutation F1417A in CbM.1 (from UniProt Q0PF16 1-304; P49790 896-1475)
[1]
  TRIM-NUP153c restriction assay: increase in HIV-GFP-positive cells: 7 fold

## TRIM-NUP153C-HA, TRIM domain of rhesus TRIM5α (1-304) fused to the HA-tagged human NUP153 C-terminal domain (896-1475), wild type (from UniProt Q0PF16;P49790) ∆1::3 (CbM.1 replaced by CbM.3)
[2]
  response (% Bound NUP153c): 47

## TRIM-NUP153C-HA with CbM.1 replaced by CbM.2 (∆1::2) (from UniProt Q0PF16;P49790) F1417A
[3]; parent: est. 55
  response (% Bound NUP153c): 36

## TRIM-NUP153C-HA, TRIM domain of rhesus TRIM5α (1-304) fused to the HA-tagged human NUP153 C-terminal domain (896-1475), wild type (from UniProt Q0PF16;P49790) ∆1::2 (CbM.1 replaced by CbM.2)
[2]
  response (% Bound NUP153c): 55
[3]; parent: est. 81
  response (% Bound NUP153c): 55

## TRIM-NUP153C-HA, TRIM domain of rhesus TRIM5α (1-304) fused to the HA-tagged human NUP153 C-terminal domain (896-1475), wild type (from UniProt Q0PF16 1-304; P49790 896-1475)
[1]
  TRIM-NUP153c restriction assay: HIV-GFP-transduced GFP-positive cells relative to empty vector control (% relative to empty vector control): 18.5

## TRIM-NUP153C-HA, TRIM domain of rhesus TRIM5α (1-304) fused to the HA-tagged human NUP153 C-terminal domain (896-1475), wild type (from UniProt Q0PF16;P49790) ∆1::4 (CbM.1 replaced by CbM.4)
[2]
  response (% Bound NUP153c): 51

## TRIM-NUP153C-HA, TRIM domain of rhesus TRIM5α (1-304) fused to the HA-tagged human NUP153 C-terminal domain (896-1475), wild type (from UniProt Q0PF16;P49790) ∆2::1 + ∆1::2 (CbM.1 and CbM.2 swapped)
[3]; parent: est. 81
  response (% Bound NUP153c): 97
